Laboratory results: article PMC9670971
“And” between values parts separate entries of the source, which are not always exact repeats. Equal entries are not always repeated.

Target: Recombinant Mip (25 kDa) (L. pneumophila) (UniProt Q5ZXE0)
Assay: co-IP

Row | Substance | antibody signal from Western blot (ImageJ) (relative units) | band intensity in Coomassie stained gel (ImageJ) (relative units) | band intensity at 15 kDa in Coomassie stained gel (ImageJ) (relative units)
1 | SspB-Strep-TagII (natural protein) | 5030 and 5180 | 4300 and 4240 | –
2 | Lpc2061-6xHis-Tag (natural protein) | 4690 and 4520 | 1900 and 795 | 4600 and 7390
3 | Flagellin FlaA (LPC_0756), native (natural protein) | 4380 and 4310 | 5680 and 5740 | –
